Laboratory results taken from PMC5992459, “Novel DNA Aptamers that Bind to Mutant Huntingtin and Modify Its Activity”.

Key:
[1] = biological target: endogenous huntingtin from HD60i4 NPC (CAG60/18) (Homo sapiens) (UniProt P42858); experiment: streptavidin pull-down; conditions: NPC lysate; ELISA: 10 mM Tris-HCl pH 8.0, 0.15 M NaCl (TBS), 2 mg/mL BSA block, 1 pmol huntingtin/well, 50 pmol biotin-aptamer, 2 h (RT for coating/blocking); caspase-6 …
[2] = biological target: Q78-huntingtin caspase-6 C-terminal fragment (270 kDa) (Homo sapiens, UniProt P42858 585-3142); experiment: caspase-6 digestion of complex, anti-biotin immunoblot; ELISA: 10 mM Tris-HCl pH 8.0, 0.15 M NaCl (TBS), 2 mg/mL BSA block, 1 pmol huntingtin/well, 50 pmol biotin-aptamer, 2 h (RT for coating/blocking); caspase-6 mapping: aptamer:huntingtin 10:1, 2 h RT, spin column; SLM: 5:1, 2 h RT; conditions: protein: recombinant; label: 5'-biotin; intramolecular G4
Q78-huntingtin caspase-6 C-terminal fragment (270 kDa), sequence (P42858 585-3142): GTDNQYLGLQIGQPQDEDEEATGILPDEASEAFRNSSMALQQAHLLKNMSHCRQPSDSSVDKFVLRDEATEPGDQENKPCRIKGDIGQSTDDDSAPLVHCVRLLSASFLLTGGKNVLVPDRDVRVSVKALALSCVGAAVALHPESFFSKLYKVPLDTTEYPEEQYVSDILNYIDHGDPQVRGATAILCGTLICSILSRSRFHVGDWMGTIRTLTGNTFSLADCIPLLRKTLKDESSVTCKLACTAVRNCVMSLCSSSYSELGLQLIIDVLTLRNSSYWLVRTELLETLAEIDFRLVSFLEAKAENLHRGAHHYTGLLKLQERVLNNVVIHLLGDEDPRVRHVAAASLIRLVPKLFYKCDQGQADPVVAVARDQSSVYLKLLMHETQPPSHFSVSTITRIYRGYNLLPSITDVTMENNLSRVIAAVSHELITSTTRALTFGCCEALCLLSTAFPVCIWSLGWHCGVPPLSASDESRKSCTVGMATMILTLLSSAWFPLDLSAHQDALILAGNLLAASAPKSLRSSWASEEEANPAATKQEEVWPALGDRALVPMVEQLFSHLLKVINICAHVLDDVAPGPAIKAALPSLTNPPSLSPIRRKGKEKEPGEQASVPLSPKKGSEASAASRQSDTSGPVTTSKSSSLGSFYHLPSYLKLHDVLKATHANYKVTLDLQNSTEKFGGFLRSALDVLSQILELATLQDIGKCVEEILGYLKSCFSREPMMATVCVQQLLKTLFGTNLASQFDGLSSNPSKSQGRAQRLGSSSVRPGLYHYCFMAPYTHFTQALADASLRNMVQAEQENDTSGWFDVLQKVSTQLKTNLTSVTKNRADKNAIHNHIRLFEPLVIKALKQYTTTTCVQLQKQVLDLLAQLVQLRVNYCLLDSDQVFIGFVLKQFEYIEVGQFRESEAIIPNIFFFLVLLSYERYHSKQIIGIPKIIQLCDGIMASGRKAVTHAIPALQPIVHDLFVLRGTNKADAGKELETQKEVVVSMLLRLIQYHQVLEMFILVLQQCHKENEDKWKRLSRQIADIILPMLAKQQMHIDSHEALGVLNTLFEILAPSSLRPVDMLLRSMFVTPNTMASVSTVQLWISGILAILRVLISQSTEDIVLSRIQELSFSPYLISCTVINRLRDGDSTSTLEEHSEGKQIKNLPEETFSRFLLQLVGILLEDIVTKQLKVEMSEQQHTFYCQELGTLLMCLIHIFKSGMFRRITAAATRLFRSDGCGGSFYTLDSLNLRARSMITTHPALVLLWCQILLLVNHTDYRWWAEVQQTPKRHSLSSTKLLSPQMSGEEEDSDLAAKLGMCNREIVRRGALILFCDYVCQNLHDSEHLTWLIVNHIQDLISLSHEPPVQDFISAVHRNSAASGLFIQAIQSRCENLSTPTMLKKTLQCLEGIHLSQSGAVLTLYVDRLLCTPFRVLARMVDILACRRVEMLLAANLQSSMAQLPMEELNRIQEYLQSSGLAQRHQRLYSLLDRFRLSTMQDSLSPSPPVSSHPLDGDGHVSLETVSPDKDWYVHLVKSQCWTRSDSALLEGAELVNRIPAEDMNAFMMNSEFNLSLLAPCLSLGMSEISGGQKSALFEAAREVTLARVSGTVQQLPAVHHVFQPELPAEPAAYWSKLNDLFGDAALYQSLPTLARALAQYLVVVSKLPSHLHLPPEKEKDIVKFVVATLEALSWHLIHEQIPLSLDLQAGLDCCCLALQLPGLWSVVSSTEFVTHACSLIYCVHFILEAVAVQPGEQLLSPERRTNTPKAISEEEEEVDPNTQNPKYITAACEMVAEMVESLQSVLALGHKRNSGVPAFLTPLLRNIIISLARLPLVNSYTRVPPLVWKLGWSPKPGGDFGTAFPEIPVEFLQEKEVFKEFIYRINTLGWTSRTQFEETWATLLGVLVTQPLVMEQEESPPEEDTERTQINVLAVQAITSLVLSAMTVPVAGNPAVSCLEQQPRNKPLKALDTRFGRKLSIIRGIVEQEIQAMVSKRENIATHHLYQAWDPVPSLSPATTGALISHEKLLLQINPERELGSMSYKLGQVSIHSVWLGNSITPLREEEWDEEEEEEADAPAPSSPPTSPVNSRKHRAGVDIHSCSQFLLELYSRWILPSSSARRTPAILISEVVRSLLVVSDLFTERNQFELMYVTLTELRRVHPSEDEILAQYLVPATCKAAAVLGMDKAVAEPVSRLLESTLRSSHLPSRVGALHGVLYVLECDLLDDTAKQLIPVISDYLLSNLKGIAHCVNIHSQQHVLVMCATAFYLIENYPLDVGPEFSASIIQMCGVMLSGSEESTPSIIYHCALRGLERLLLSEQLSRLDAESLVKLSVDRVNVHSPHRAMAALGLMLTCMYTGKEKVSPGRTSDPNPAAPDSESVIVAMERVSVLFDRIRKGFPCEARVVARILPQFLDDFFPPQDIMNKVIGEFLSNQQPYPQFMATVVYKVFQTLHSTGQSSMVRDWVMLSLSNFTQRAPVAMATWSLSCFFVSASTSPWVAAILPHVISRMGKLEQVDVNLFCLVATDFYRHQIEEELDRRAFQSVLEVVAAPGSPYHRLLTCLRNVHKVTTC

Row | Molecule | binding signal (fold vs HD17m8) [1] | binding result [2]
1 | GGGAGGGAGGGAGGGAGGGAGGGAGGGAGGGAGGGA [MS3] | 3.6 | 
2 | TGGGGAGGGGAGGGGCGGGGT (structured_DNA) [MS4] |  | binds
3 | AGGGGTGGGGAGGGGAGGGGA (structured_DNA) [MS2] |  | binds
4 | GGGAGGGAGGGAGGGAGGGAGGGAGGGAGGGAGGGA (structured_DNA) [MS3] |  | binds
5 | AGGGGTGGGGAGGGGTGGGGA (structured_DNA) [MS1] |  | binds
